Results taken from paper PMC4505066 (2015).
Where a chain is given by its changes, count along the chain named. Where “and” joins values, the source holds several entries; their conditions need not be identical. Equal values may be shown once. Read-outs that look alike come from different tables or passages of the source. No end group written: not given here.

B1: HDAC4 catalytic domain, wild type (domain or fragment)
chain: TKPRFTTGLVYDTLMLKHQCTCGSSSSHPEHAGRIQSIWSRLQETGLRGKCECIRGRKATLEELQTVHSEAHTLLYGTNPLNRQKLDSKKLLGSLASVFVRLPCGGVGVDSDTIWNEVHSAGAARLAVGCVVELVFKVATGELKNGFAVVRPPGHHAEESTPMGFCYFNSVAVAAKLLQQRLSVSKILIVDWDVHHGNGTQQAFYSDPSVLYMSLHRYDDGNFFPGSGAPDEVGTGPGVGFNVNMAFTGGLDPPMGDAEYLAAFRTVVMPIASEFAPDVVLVSSGFDAVEGHPTPLGGYNLSARCFGYLTKQLMGLAGGRIVLALEGGHDLTAICDASEACVSALLGNELDPLPEKVLQQRPNANAVRSMEKVMEIHSKYWRCLQRTTSTAGRSLIEAQTCENEEAETVT

Columns and labels:
[1] = molecular target: T1, GSI motif peptide with a mutation to Gln-5 of the motif (UniProt Q9Y618, BODIPY-TMR coupled to the N-terminal cysteine); experiment: FP; Q5A peptide
[2] = molecular target: T1, GSI motif peptide with a mutation to …; experiment: FP; Q5E peptide
[3] = molecular target: T2, GSI motif peptide with a mutation to Thr-4 of the motif (UniProt Q9Y618, BODIPY-TMR coupled to the N-terminal cysteine); experiment: FP; T4A peptide
[4] = molecular target: T2, GSI motif peptide with a mutation to …; experiment: FP; T4V peptide
[5] = molecular target: GSI motif peptide with a mutation to Pro-8 of the motif (UniProt Q9Y618, BODIPY-TMR coupled to the N-terminal cysteine); experiment: FP; P8A peptide
[6] = molecular target: T3, HDAC4 catalytic domain C751A; experiment: FP
T3 chain: B1 chain with C104A

[7] = molecular target: B1; experiment: FP
[8] = molecular target: HDAC4 catalytic domain L728A (UniProt P56524 648-1033, L728A); experiment: FP
[9] = molecular target: T4, HDAC4 catalytic domain H675A; experiment: FP
T4 chain: B1 chain with H28A

[10] = molecular target: T5, HDAC4 catalytic domain C667A; experiment: FP
T5 chain: B1 chain with C20A

[11] = molecular target: B1; experiment: FP
HDAC5 catalytic domain = molecular target: T6, HDAC5 catalytic domain; experiment: FP
T6 chain: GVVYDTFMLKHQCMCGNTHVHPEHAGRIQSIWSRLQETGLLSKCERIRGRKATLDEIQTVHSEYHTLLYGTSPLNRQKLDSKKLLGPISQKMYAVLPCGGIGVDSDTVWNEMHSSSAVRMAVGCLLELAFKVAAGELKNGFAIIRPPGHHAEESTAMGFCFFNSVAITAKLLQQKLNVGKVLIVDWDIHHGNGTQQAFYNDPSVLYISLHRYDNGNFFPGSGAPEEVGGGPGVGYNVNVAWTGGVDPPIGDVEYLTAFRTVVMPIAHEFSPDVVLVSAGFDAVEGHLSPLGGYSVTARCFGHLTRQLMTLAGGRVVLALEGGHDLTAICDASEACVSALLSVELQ

HDAC9 catalytic domain = molecular target: T7, HDAC9 catalytic domain; experiment: FP
T7 chain: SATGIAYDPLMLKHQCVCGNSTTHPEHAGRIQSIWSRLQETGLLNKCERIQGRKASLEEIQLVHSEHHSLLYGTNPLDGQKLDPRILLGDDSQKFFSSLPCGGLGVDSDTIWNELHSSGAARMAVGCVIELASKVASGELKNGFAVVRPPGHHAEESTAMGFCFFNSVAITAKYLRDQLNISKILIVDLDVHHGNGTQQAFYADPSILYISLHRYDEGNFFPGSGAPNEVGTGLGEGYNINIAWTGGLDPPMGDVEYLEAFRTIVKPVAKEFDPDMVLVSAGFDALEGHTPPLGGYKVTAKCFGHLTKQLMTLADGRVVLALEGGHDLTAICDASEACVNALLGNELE

HDAC7 catalytic domain = molecular target: T8, HDAC7 catalytic domain; experiment: FP
T8 chain: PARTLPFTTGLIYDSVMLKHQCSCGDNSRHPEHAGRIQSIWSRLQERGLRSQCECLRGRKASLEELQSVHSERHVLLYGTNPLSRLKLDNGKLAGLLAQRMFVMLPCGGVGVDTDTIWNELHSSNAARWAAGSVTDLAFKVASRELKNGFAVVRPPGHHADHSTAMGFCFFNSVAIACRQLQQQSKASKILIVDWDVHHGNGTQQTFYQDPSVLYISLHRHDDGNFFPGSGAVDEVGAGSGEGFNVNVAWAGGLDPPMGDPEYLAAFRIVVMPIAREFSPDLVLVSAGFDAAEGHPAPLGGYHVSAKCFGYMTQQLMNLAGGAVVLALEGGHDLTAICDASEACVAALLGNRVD

full-length HDAC8 = molecular target: T9, full-length HDAC8 (UniProt Q9BY41 1-377); experiment: FP
T9 chain: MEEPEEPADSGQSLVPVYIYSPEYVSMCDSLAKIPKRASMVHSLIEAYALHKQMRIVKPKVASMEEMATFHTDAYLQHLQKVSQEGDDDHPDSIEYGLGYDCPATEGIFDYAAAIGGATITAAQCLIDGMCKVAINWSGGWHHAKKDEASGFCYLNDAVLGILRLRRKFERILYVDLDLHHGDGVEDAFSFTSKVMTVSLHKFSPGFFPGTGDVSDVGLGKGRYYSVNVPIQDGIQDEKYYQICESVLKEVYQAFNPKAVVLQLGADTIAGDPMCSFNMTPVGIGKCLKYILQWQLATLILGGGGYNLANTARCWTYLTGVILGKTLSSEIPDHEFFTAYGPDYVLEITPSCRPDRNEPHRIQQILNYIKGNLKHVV

Chain of HDAC4 catalytic domain L728A (P56524 648-1033 L728A): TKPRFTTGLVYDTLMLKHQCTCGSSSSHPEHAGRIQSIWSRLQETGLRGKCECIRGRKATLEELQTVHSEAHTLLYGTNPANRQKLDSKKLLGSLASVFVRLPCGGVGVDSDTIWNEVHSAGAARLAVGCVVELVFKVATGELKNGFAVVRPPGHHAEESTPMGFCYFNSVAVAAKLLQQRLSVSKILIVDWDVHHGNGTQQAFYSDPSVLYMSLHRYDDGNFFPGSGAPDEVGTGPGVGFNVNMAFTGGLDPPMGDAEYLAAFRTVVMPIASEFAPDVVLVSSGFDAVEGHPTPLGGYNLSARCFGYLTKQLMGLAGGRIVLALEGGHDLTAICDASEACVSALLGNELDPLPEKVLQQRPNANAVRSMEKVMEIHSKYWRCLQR

Binder	Kd [1]	Kd [2]	Kd [3]	Kd [4]	Kd [5]	Kd [6]	Kd [7]	Kd [8]	Kd [9]	Kd [10]	Kd [11]	Kd (HDAC5 catalytic domain)	Kd (HDAC9 catalytic domain)	Kd (HDAC7 catalytic domain)	Kd (full-length HDAC8)
B1	5.47 µM	17.7 µM	14.4 µM	16.9 µM	47 µM	–	–	–	–	–	–	–	–	–	–
C(BODIPY‑TMR)PRPLKEGSITQGTPLKYDTG	–	–	–	–	–	> 1000 µM	5.6 µM	4.59 µM	> 1000 µM	> 1000 µM	5.74 µM and 6.5 µM	4.24 µM	8.34 µM	4.44 µM	> 1000 µM
